{
  "source": "paper PMC2956685",
  "about": "“The 14-3-3ζ Protein Binds to the Cell Adhesion Molecule L1, Promotes L1 Phosphorylation by CKII and Influences L1-Dependent Neurite Outgrowth” (PLoS ONE, 2010)",
  "binders": {"B1": {"name": "GST-14-3-3ζ (natural protein, UniProt P63104 1-245, looked up)", "chain": "MDKNELVQKAKLAEQAERYDDMAACMKSVTEQGAELSNEERNLLSVAYKNVVGARRSSWRVVSSIEQKTEGAEKKQQMAREYREKIETELRDICNDVLSLLEKFLIPNASQAESKVFYLKMKGDYYRYLAEVAAGDDKKGIVDQSQQAYQEAFEISKKEMQPTHPIRLGLALNFSVFYYEILNSPEKACSLAKTAFDEAIAELDTLSEESYKDSTLIMQLLRDNLTLWTSDTQGDEAEAGEGGEN"}},
  "target": "His-L1ICD, non-phosphorylated (intracellular domain of L1) (mouse, UniProt P11627 1144-1260)",
  "sequence (P11627 1144-1260)": "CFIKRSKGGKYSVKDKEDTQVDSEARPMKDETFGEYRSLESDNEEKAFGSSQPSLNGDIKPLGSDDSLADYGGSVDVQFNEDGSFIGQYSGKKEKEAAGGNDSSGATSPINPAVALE",
  "experiment": "cell-based or functional assay",
  "data": [
    {"binder": "B1", "values": [
      {"measurement": "phosphorylation of L1ICD by CKII in vitro (densitometry of the phospho-L1ICD band, 0 to 180 min) after preincubation with GST-14-3-3ζ against GST alone", "result": "~3", "unit": "fold"}
    ]}
  ]
}
